In publication PMC2114693 (The Journal of Cell Biology, 1987):
“And” between values parts separate entries of the source, which are not always exact repeats. Equal values may be shown once. Each block holds one binder with its values, some of them ahead of it.

Assays:
[1] = target: human erythrocyte spectrin (human, UniProt P02549;P11277); experiment: co-sedimentation
[2] = target: chicken skeletal muscle actin (chicken, UniProt P68139 1-377); experiment: co-sedimentation

Chain of human erythrocyte spectrin (P02549 whole entry, chain 1 of 2): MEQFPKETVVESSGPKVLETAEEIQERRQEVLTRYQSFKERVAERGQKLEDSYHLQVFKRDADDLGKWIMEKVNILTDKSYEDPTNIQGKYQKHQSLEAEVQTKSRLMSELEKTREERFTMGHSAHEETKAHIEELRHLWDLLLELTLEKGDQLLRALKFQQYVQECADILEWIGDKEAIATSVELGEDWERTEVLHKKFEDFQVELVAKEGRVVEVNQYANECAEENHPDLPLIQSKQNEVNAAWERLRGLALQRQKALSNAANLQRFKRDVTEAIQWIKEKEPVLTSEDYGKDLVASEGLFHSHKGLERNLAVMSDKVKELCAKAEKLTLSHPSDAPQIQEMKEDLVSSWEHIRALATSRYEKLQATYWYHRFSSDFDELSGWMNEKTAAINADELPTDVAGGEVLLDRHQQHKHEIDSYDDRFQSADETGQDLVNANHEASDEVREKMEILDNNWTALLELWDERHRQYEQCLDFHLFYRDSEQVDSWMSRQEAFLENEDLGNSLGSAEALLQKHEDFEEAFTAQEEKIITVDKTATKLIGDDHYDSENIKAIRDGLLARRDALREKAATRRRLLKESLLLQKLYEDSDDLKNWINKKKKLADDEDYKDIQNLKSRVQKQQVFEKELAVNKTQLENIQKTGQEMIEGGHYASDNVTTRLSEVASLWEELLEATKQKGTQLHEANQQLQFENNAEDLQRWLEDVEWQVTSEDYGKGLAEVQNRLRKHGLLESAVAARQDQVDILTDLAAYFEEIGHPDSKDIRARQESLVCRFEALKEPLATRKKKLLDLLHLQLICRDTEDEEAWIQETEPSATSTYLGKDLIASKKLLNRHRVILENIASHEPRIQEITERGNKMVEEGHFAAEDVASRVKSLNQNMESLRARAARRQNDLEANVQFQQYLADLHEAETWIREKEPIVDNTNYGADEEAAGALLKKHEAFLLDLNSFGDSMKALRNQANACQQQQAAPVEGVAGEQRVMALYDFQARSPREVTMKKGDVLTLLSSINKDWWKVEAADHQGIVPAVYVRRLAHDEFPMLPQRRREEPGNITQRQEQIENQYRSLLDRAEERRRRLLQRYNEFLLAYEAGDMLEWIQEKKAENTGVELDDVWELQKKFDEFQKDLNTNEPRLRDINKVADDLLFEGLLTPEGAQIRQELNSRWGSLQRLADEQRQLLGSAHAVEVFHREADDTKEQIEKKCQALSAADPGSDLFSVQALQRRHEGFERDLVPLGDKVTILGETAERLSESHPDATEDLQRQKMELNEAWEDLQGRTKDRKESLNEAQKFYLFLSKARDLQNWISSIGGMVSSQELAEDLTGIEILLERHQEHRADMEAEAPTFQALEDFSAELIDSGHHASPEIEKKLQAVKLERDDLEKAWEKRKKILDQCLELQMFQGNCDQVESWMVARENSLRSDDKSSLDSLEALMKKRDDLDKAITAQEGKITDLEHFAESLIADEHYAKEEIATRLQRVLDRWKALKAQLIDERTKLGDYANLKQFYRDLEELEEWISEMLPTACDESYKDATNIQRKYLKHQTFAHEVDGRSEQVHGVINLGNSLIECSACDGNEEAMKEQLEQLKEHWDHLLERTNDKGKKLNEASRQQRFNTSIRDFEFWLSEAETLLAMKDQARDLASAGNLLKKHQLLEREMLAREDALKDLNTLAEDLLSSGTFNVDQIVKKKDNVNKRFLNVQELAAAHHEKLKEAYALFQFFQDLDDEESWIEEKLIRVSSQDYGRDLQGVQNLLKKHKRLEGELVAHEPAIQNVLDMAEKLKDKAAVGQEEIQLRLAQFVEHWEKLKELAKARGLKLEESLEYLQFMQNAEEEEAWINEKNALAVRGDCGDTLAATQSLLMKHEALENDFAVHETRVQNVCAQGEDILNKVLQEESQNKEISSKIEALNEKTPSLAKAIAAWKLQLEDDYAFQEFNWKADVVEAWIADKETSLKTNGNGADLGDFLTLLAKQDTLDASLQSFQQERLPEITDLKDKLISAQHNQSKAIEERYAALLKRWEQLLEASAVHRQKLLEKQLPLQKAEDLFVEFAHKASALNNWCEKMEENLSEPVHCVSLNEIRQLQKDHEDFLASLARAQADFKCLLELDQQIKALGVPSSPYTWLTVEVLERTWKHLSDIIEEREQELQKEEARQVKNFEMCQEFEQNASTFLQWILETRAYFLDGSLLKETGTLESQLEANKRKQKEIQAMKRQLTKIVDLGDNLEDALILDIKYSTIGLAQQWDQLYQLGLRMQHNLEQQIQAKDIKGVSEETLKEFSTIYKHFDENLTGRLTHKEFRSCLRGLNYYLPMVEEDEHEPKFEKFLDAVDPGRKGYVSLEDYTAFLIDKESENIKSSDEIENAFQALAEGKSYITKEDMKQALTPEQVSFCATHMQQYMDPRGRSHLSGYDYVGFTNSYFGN
Chain of human erythrocyte spectrin (P11277 whole entry, chain 2 of 2): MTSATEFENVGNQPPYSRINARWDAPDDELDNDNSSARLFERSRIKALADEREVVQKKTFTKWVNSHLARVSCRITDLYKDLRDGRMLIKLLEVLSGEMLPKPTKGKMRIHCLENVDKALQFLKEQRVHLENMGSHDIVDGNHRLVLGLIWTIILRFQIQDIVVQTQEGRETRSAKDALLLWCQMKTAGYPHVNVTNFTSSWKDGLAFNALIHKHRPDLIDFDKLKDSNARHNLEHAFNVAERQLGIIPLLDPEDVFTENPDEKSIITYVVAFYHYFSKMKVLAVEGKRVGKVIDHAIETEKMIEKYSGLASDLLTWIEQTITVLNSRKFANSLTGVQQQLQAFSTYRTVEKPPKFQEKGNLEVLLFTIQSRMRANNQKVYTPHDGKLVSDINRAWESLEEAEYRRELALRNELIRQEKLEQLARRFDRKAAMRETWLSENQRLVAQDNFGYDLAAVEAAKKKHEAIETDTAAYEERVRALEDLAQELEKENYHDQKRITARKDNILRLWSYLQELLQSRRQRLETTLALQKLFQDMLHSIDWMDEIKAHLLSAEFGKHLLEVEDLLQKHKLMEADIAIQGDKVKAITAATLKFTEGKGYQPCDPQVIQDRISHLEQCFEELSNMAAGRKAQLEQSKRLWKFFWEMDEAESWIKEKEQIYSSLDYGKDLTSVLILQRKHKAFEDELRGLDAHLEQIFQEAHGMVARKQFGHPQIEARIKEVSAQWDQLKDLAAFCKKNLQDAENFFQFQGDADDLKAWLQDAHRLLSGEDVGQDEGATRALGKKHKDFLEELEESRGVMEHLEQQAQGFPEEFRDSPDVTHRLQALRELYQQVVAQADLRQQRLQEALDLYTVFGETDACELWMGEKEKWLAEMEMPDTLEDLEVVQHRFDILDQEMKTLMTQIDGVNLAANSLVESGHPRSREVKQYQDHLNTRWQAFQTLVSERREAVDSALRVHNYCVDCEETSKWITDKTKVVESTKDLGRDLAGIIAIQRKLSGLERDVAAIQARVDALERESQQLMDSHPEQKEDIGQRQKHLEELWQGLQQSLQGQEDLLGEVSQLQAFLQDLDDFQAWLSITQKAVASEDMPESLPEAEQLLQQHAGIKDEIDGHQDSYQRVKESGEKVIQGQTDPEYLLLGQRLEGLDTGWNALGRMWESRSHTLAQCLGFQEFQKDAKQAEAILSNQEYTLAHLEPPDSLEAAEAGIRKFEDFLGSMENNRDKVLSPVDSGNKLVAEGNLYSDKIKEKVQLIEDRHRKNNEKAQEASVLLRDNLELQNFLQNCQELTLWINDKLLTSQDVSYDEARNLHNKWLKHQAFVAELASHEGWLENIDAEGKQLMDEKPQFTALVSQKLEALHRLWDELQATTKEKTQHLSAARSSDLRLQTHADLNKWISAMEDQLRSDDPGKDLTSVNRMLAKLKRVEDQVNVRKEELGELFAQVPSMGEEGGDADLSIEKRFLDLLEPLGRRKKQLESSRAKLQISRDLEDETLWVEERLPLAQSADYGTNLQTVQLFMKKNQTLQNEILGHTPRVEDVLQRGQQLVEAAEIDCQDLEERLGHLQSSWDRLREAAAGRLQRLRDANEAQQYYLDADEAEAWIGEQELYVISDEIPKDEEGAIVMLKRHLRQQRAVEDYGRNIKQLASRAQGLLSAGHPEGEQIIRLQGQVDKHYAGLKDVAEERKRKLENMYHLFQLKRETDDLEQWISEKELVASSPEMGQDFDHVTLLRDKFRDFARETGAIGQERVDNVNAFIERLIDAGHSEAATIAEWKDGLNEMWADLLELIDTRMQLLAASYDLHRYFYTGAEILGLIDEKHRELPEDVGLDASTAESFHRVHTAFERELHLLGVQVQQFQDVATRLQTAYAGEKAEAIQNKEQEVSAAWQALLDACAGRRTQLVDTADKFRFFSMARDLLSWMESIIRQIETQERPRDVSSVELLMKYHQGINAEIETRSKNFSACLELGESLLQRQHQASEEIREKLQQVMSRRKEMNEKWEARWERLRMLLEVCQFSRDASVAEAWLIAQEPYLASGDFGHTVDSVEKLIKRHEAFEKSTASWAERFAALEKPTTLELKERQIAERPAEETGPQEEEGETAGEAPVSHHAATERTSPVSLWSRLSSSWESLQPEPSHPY

Kd [1]: 104 nM
B1: adducin-actin complex (complex)
chain 1: MNGDSRAAVVTSPPPTTAPHKERYFDRVDENNPEYLRERNMAPDLRQDFNMMEQKKRVSMILQSPAFCEELESMIQEQFKKGKNPTGLLALQQIADFMTTNVPNVYPAAPQGGMAALNMSLGMVTPVNDLRGSDSIAYDKGEKLLRCKLAAFYRLADLFGWSQLIYNHITTRVNSEQEHFLIVPFGLLYSEVTASSLVKINLQGDIVDRGSTNLGVNQAGFTLHSAIYAARPDVKCVVHIHTPAGAAVSAMKCGLLPISPEALSLGEVAYHDYHGILVDEEEKVLIQKNLGPKSKVLILRNHGLVSVGESVEEAFYYIHNLVVACEIQVRTLASAGGPDNLVLLNPEKYKAKSRSPGSPVGEGTGSPPKWQIGEQEFEALMRMLDNLGYRTGYPYRYPALREKSKKYSDVEVPASVTGYSFASDGDSGTCSPLRHSFQKQQREKTRWLNSGRGDEASEEGQNGSSPKSKTKWTKEDGHRTSTSAVPNLFVPLNTNPKEVQEMRNKIREQNLQDIKTAGPQSQVLCGVVMDRSLVQGELVTASKAIIEKEYQPHVIVSTTGPNPFTTLTDRELEEYRREVERKQKGSEENLDEAREQKEKSPPDQPAVPHPPPSTPIKLEEDLVPEPTTGDDSDAATFKPTLPDLSPDEPSEALGFPMLEKEEEAHRPPSPTEAPTEASPEPAPDPAPVAEEAAPSAVEEGAAADPGSDGSPGKSPSKKKKKFRTPSFLKKSKKKSDS
chain 2: MSEETVPEAASPPPPQGQPYFDRFSEDDPEYMRLRNRAADLRQDFNLMEQKKRVTMILQSPSFREELEGLIQEQMKKGNNSSNIWALRQIADFMASTSHAVFPTSSMNVSMMTPINDLHTADSLNLAKGERLMRCKISSVYRLLDLYGWAQLSDTYVTLRVSKEQDHFLISPKGVSCSEVTASSLIKVNILGEVVEKGSSCFPVDTTGFCLHSAIYAARPDVRCIIHLHTPATAAVSAMKWGLLPVSHNALLVGDMAYYDFNGEMEQEADRINLQKCLGPTCKILVLRNHGVVALGDTVEEAFYKIFHLQAACEIQVSALSSAGGVENLILLEQEKHRPHEVGSVQWAGSTFGPMQKSRLGEHEFEALMRMLDNLGYRTGYTYRHPFVQEKTKHKSEVEIPATVTAFVFEEDGAPVPALRQHAQKQQKEKTRWLNTPNTYLRVNVADEVQRSMGSPRPKTTWMKADEVEKSSSGMPIRIENPNQFVPLYTDPQEVLEMRNKIREQNRQDVKSAGPQSQLLASVIAEKSRSPSTESQLMSKGDEDTKDDSEETVPNPFSQLTDQELEEYKKEVERKKLELDGEKETAPEEPGSPAKSAPASPVQSPAKEAETKSPLVSPSKSLEEGTKKTETSKAATTEPETTQPEGVVVNGREEEQTAEEILSKGLSQMTTSADTDVDTSKDKTESVTSGPMSPEGSPSKSPSKKKKKFRTPSFLKKSKKKEKVES
chain 3: […]

Kd [2]: 283 nM
stoichiometry N [2]: ~0.143 M/M (adducin to actin) and 0.16 M/M (adducin to actin)
B2: human erythrocyte adducin (complex)
chain 1: B1 chain 1
chain 2: B1 chain 2
